Assay results taken from patent US20230272415.

Experiments:
Test in all cases: cell_activity
[1] = test system: ZFN 59581 (synthetic construct); details: pair with 59580; 6 ug mRNA, activated T cells; 83 at 2 ug, 72 at 0.5 ug
[2] = test system: ZFN 59440 (synthetic construct); details: pair with 59441; 6 ug mRNA, activated T cells; 82 at 2 ug, 59 at 0.5 ug
[3] = test system: ZFN 59580 (synthetic construct); details: pair with 59581; 6 ug mRNA, activated T cells; 83 at 2 ug, 72 at 0.5 ug
[4] = test system: ZFN 59489 (synthetic construct); details: pair with 59488; 6 ug mRNA, activated T cells; 84 at 2 ug, 60 at 0.5 ug
[5] = test system: ZFN 59557 (synthetic construct); details: pair with 59558; 6 ug mRNA, activated T cells; 80 at 2 ug, 55 at 0.5 ug
[6] = test system: ZFN 59558 (synthetic construct); details: pair with 59557; 6 ug mRNA, activated T cells; 80 at 2 ug, 55 at 0.5 ug
[7] = test system: ZFN 59488 (synthetic construct); details: pair with 59489; 6 ug mRNA, activated T cells; 84 at 2 ug, 60 at 0.5 ug
[8] = test system: ZFN 59441 (synthetic construct); details: pair with 59440; 6 ug mRNA, activated T cells; 82 at 2 ug, 59 at 0.5 ug

## ATAGTGCTGCACAAGGCTGACCACATCC (double strand) [CISH exon 3 target of 59581]
[1]
  activity: 82 % cleavage

## CCAGCAAAGGACGAGGTCTAGAAGGCAG (double strand) [CISH exon 2 target of 59440]
[2]
  activity: 84 % cleavage

## CCGGAAAGGCCAGGATGCGTGGCCTGGA (double strand) [CISH exon 3 target of 59580]
[3]
  activity: 82 % cleavage

## GAGGAGGTGGCAGAGGGTACCCCAGCCC (double strand) [CISH exon 2 target of 59489]
[4]
  activity: 89 % cleavage

## GAGTCCAGACGGAAGCTGGAGTCGGCAT (double strand) [CISH exon 3 target of 59557]
[5]
  activity: 84 % cleavage

## GATGCGTGGCCTGGACAAGCAGTTGGAG (double strand) [CISH exon 3 target of 59558]
[6]
  activity: 84 % cleavage

## GGAAGGCCCCAGCAGGCAAGGGCTGCAT (double strand) [CISH exon 2 target of 59488]
[7]
  activity: 89 % cleavage

## GTGGAGCGGACTGGGCAGCGGCCCCTGT (double strand) [CISH exon 2 target of 59441]
[8]
  activity: 84 % cleavage
